Experimental data: patent publication US20190201500A1 (ONL THERAPEUTICS, published 2019)
Blank lines part the entries; values can stand above or below the molecule they belong to. No end group written: not given here.

Target: T1, Fas receptor on 661W photoreceptor cells (UniProt P25446 22-327, limits assumed)
T1 sequence (looked up): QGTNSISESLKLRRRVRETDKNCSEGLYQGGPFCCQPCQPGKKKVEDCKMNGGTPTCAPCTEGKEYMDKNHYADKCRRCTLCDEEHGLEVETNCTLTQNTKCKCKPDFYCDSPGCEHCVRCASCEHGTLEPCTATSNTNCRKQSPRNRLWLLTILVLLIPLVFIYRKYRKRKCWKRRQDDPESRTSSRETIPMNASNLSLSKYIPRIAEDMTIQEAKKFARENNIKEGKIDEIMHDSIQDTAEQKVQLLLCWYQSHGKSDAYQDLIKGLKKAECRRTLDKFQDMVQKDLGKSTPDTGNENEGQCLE
Test: cell-based or functional assay

- caspase 8 activity in 661W cell lysates (dose of peak activity): 500 ng/mL
- increase of caspase 8 activity in 661W cells: 20 to 30%
Molecule: human recombinant FasL (from UniProt P48023 134-281) (ligand)

- EC50, inhibition of FasL-induced caspase 8 activation in 661W cells: 400 nM
- fold potency against Met-12 by IC50 determination: 10 fold
- fold potency against Met-12 by the concentration of maximal inhibition: ~3 fold
B1: Compound 1 (His-His-Ile-Tyr-Leu-Gly-Ala-Val-Asn-Tyr-Ile-Tyr-NH2), C-terminal amide of Met-12 (peptide)
peptide: HHIYLGAVNYIY-NH2
modifications: also: trihydrochloride salt

- EC50, inhibition of FasL-induced caspase 8 activation in 661W cells: 4000 nM
B2: Met-12 (HHIYLGAVNYIY) (peptide)
peptide: HHIYLGAVNYIY
modifications: also: trihydrochloride salt
